Assay results from US8653023.

Biological target: protein phosphatase 2A (PP2A), endogenous, in N27 cell lysate

B1: protein kinase C delta (PKCδ), endogenous, in N27 cell lysate (immortalized rat fetal mesencephalic dopaminergic neuronal cells) (protein)
chain: MAPFLRISFNSYELGSLQAEDDASQPFCAVKMKEALTTDRGKTLVQKKPTMYPEWKSTFDAHIYEGRVIQIVLMRAAEDPMSEVTVGVSVLAERCKKNNGKAEFWLDLQPQAKVLMCVQYFLEDGDCKQSMRSEEEAMFPTMNRRGAIKQAKIHYIKNHEFIATFFGQPTFCSVCKEFVWGLNKQGYKCRQCNAAIHKKCIDKIIGRCTGTATNSRDTIFQKERFNIDMPHRFKVYNYMSPTFCDHCGTLLWGLVKQGLKCEDCGMNVHHKCREKVANLCGINQKLLAEALNQVTQKASRKPETPETVGIYQGFEKKTAVSGNDIPDNNGTYGKIWEGSNRCRLENFTFQKVLGKGSFGKVLLAELKGKERYFAIKYLKKDVVLIDDDVECTMVEKRVLALAWENPFLTHLICTFQTKDHLFFVMEFLNGGDLMFHIQDKGRFELYRATFYAAEIICGLQFLHGKGIIYRDLKLDNVMLDKDGHIKIADFGMCKENIFGENRASTFCGTPDYIAPEILQGLKYSFSVDWWSFGVLLYEMLIGQSPFHGDDEDELFESIRVDTPHYPRWITKESKDIMEKLFERDPAKRLGVTGNIRLHPFFKTINWNLLEKRKVEPPFKPKVKSPSDYSNFDPEFLNEKPQLSFSDKNLIDSMDQTAFKGFSFVNPKYEQFLE
32P-kinase assay: phosphorylation of immunoprecipitated PP2A: PP2A immunoprecipitated from N27 cells was effectively phosphorylated by PKCδ immunoprecipitates
